Experimental data from article PMC6992608, “A Single Step in vitro Bioassay Mimicking TLR4-LPS Pathway and the Role of MD2 and CD14 Coreceptors” (Frontiers in Immunology, 2020).

Target: T1, Human recombinant toll like receptor 4 (rTLR4) (human, UniProt O00206 24-631)
T1 construct: toll like receptor 4 (TLR4), human, recombinant; No catalogue number or construct limits are printed; a soluble recombinant TLR4 is most likely the extracellular domain (surmised); also called MP-rTLR4; source: bought: R & D Systems
T1 sequence (O00206 24-631): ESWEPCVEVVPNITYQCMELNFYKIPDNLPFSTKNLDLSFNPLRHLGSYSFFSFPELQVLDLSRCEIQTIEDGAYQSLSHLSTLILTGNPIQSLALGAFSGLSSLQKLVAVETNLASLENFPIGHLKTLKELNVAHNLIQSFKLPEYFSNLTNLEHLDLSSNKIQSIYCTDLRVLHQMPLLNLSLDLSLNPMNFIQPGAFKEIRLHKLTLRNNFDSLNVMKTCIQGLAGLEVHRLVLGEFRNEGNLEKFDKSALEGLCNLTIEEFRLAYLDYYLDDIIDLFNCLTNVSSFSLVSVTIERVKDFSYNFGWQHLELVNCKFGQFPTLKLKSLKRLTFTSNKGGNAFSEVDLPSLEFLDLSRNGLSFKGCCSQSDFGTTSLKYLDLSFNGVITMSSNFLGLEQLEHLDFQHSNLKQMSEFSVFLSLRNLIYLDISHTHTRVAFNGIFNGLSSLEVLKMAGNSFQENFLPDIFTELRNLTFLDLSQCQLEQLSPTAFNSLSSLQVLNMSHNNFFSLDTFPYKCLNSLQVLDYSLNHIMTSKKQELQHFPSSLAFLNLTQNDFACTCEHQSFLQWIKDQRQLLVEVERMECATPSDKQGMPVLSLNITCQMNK
Assay: pull-down; rTLR4 held by its His tag on Ni-NTA magnetic beads; MD2 (Alexa Fluor 647), CD14 and LPS-Alexa Fluor 488 co-incubated in one tube in PBS pH 7.4 with 0.5% Tween 20 at RT; beads removed by magnet at 15, 30, 45, 60 and 90 min; unbound MD2 in the supernatant quantified by fluorescence, CD14 by silver staining
Settings: both partners purified

B1: Recombinant human myeloid differentiation-2 (MD2) protein (natural protein, UniProt Q9Y6Y9 19-160, looked up)
chain: QKQYWVCNSSDASISYTYCDKMQYPISINVNPCIELKRSKGLLHIFYIPRRDLKQLYFNLYITVNTMNLPKRKEVICRGSDDDYSFCRALKGETVNTTISFSFKGIKFSKGKYKCVVEAISGSPEEMLFCLEFVILHQPNSN
modifications: Alexa Fluor 647, on average 3 tags per MD2 molecule
notes: myeloid differentiation-2 (MD2, lymphocyte antigen 96), human, recombinant; No catalogue number is printed; source: bought: Abcam
For B1, the “stoichiometry N” value was 1.
